These results are taken from article PMC10418658, “Biochemical and Structural Insights into a Thiamine Diphosphate-Dependent α-Ketoglutarate Decarboxylase from Cyanobacterium Microcystis aeruginosa NIES-843” (International Journal of Molecular Sciences, 2023).

Substrate in data set [1]: O=C(O)CCC(=O)C(=O)O
Briefly: purified protein. The following applies: saturated ThDP and Mg2+; purified from coexpression with pTf16. The class given is biochemical, Synechocystis sp. PCC 6803.

Substrate in data set [2]: Cc1ncc(C[n+]2csc(CCO[P@](=O)(O)OP(=O)(O)O)c2C)c(N)n1
Briefly: purified protein. The following applies: half-saturation of activity; purified from coexpression with pTf16; varied: cofactor.

B1: StKGD (Synechocystis sp. PCC 6803 substr. Kazusa) (protein)
chain: MGQMNTADLLVQCLENEDVEYIFGVPGEENLHILEALKNSPIRFITTRHEQGAAFMADVYGRLTGKAGVCLSTLGPGATNLMTGVADANLDGAPLVAITGQVGTDRMHIESHQYLDLVAMFDPVTKWTRQIVRPSITPEVVRKAFKLAQSEKPGATHIDLPENIAAMPVDGKPLRRDSREKVYAAFRTLGTAANAISKAKNPIILAGNGTIRAEASEALTEFATSLNIPVANTFMGKGTMPYTHPLSLWTVGLQQRDHITCAFEKSDLVIAVGYDLIEYSPKKWNPTGDLPIIHIGATPAEIDSSYIPQVEVVGDITDSLMDLLKRCDRQGKPTPYGASLRAEIRAEYECYANDTGFPVKPQKIIYDLRQVMGPDDVVISDVGAHKMWMARHYHCDSPNTCLISNGFAAMGIAIPGAIAAKLVYPERNIVAVTGDGGFMMNCQELETAMRVGTPFVTLIFNDNGYGLIEWKQINQFGESSFIKFGNPDFVKFAESMGLKGYRVEAAADLIPILKEALAQPVPTVIDCPVDYRENIRFSQKAGELACEIWE
notes: recombinant, coexpressed with chaperone plasmid pTf16 and purified again in this study
Take B1: in the data set “purified protein [1]”, the Km (commonly the substrate concentration at which the rate is half of its maximum) is 3.83 ± 0.75 mM; the kcat – broadly, the number of substrate molecules converted per active site and unit of time at saturation – turned out to be 3.07 ± 0.42 s⁻¹; the kcat/Km (as a rule, the turnover number divided by the Michaelis constant) worked out at 800 M⁻¹ s⁻¹. Further, the K0.5 in the data set “purified protein [2]” is listed as 0.063 ± 0.019 mM.
